These results are taken from US20190071493A1 (SCHOLAR ROCK, published 2019).

The target in test [1] is T1, proTGFβ2 (Chlorocebus aethiops (Green monkey) …, UniProt P61811 20-414).
T1 sequence: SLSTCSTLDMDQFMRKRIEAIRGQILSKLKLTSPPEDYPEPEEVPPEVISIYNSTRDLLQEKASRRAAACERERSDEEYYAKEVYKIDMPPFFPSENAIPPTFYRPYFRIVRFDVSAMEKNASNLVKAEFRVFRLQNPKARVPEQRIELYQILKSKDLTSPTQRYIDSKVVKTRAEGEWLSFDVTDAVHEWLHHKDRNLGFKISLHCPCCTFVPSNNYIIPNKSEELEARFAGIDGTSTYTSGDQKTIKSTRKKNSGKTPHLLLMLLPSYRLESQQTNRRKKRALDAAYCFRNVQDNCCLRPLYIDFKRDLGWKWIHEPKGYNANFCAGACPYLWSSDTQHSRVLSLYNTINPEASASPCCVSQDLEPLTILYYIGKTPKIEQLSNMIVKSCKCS
Description: ELISA.

Test [2] has as its target T2, proTGFβ3 (Homo sapiens (Human), UniProt P10600 24-412).
T2 sequence: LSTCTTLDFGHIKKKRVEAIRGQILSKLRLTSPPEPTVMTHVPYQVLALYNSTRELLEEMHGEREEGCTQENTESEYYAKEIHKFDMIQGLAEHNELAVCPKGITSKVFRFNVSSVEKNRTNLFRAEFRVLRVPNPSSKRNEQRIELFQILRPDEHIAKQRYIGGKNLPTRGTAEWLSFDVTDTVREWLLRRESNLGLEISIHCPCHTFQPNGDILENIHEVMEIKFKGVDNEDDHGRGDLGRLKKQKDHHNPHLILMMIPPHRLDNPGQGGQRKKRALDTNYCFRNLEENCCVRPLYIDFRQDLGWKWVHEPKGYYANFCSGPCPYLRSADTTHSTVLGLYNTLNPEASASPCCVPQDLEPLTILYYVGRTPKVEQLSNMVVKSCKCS
Description: ELISA.

Test [3] deals with rat LTBP1-proTGFβ1 complex (rat, UniProt Q00918 339-1712; P17246 30-390). Nature of the test: Octet (BLI) binding assay as in Table 6. The procedure:
a. Dilute both antibodies to 50 μg/mL in 300 μl of 1x buffer in row A. b. Add 200 μl of buffer to the rest of each column c. Transfer 100 μl down the column to make 3-fold dilutions

Sequence of rat LTBP1-proTGFβ1 complex (Q00918 339-1712, chain 1 of 2): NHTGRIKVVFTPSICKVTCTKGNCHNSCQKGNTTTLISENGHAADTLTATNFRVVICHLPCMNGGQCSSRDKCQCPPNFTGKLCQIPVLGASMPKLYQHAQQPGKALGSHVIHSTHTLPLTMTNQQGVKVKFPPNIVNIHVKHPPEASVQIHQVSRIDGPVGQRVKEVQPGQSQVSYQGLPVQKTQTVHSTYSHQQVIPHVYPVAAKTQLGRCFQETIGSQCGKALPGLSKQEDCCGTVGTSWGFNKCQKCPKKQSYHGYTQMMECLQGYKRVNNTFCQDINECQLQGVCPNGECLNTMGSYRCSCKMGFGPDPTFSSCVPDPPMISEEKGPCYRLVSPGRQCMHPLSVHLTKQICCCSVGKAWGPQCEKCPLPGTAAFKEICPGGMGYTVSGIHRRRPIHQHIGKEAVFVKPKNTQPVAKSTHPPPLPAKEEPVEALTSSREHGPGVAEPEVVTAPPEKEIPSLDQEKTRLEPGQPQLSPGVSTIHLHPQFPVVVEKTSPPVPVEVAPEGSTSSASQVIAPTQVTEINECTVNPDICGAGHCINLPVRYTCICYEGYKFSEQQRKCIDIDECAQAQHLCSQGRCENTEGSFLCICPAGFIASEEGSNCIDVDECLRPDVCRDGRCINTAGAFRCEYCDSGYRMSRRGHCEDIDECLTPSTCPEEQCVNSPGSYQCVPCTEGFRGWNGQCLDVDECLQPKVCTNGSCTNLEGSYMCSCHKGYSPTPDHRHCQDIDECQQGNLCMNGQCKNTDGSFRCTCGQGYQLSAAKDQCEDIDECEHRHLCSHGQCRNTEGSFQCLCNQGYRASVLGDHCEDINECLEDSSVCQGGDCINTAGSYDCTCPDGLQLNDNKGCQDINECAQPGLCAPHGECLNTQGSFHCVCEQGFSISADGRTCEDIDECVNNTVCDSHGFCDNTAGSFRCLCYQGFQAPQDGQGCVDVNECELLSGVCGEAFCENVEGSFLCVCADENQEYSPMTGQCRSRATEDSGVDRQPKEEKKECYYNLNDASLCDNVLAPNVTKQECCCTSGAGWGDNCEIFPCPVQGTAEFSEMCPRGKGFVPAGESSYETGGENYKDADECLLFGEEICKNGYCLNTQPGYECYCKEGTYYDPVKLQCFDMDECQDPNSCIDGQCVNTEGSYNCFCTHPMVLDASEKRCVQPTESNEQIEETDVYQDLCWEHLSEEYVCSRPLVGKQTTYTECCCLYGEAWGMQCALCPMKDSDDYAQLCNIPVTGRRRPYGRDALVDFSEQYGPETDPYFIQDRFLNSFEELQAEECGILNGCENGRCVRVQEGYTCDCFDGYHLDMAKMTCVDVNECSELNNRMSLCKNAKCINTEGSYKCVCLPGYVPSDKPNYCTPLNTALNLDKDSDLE
Sequence of rat LTBP1-proTGFβ1 complex (P17246 30-390, chain 2 of 2): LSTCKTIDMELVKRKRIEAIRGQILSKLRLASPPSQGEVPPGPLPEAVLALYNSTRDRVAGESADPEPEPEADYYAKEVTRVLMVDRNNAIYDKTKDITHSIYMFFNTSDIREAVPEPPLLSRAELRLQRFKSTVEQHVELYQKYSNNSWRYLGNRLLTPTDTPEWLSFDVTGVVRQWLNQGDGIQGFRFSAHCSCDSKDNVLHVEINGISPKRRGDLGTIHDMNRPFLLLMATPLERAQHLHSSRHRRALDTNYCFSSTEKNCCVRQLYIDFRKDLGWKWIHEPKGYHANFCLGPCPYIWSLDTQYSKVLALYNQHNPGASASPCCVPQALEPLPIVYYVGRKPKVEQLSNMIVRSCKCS

B1: Ab1 (antibody, human IgG4 S228P, lambda, V domains shown)
VH: EVQLVESGGGLVQPGRSLRLSCAASGFTFSSYGMHWVRQAPGKGLEWVAVISYDGSNKYYADSVKGRFTISRDNSKNTLYLQMNSLRAEDTAVYYCARDIRPYGDYSAAFDIWGQGTLVTVSS
VL: NFMLTQPHSVSESPGKTVTISCTGSSGSIASNYVQWYQQRPGSAPSIVIFEDNQRPSGAPDRFSGSIDSSSNSASLTISGLKTEDEADYYCQSYDSSNHGGVFGGGTQLTVLG
notes: also called antibody Ab1; clone Ab1
Regarding B1, the binding result in test [1], in test [2] and in test [3] was “no binding” each time.

B2: Ab2 (antibody, V domains shown)
VH: EVQLVQSGAEMKKPGESLKISCKGSGYNFASDWIGWVRQTPGKGLEWMGVIYPGDSDTRYSASFQGQVTISADKSINTAYLQWSSLKASDTAMYYCASAAGIAAAGHVTAFDIWGQGTMVTVSS
VL: not shown
notes: also called antibody Ab2; clone Ab2
Turning to B2, the binding result in test [1] and in test [2] was “no binding” in each case.
